Measured values reported in the supplement of paper PMC6757056.
± gives the standard deviation of the averaged measurements.

B1: library; a variant is named by its letters at N, in order (parent)
chain: GCUGUCACCGGUGCUUGGUACGUUAUAUUCAGCCGGUCUGAUGAGUCUNNNNNNAGACGAAACAGC

Experiments:
[1] = variants of: B1; experiment: FACS-Seq fitted mean relative fluorescence mCherry/BFP without ligand (log10 relative fluorescence); HEK293T overexpressing SLC46A1; higher = higher reporter protein expression; conditions: without (6R,S)-folinic acid; ligand present: no
Method in brief: (§1)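 Reporter cells were enriched HEK293T libraries transduced by lentivirus with mCherry behind the ribozyme switch and with an EF1α-BFP marker. Following 48 h with or without ligand, they were sorted into 6 mCherry/BFP bins, and bin genomic DNA was PCR-amplified, barcoded and MiSeq-sequenced. Fluorescence was computed as the fitted normal mean of the bin counts. The fit used log10(mCherry/BFP), with scaling to five spiked-in control ribozymes.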

[2] = variants of: B1; experiment: normalized RNA/DNA level without ligand (relative to sTRSVctl = 100) (log10 (% of sTRSVctl)); HEK293T overexpressing SLC46A1; higher = less ribozyme self-cleavage, higher mRNA level; conditions: without (6R,S)-folinic acid; ligand present: no
Method in brief: (§2)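 For each 6-well well, 4 µg of library plasmid encoding mCherry-linked ribozyme switches, or eGFP-linked ones in some ligand experiments, was transfected into HEK293T. Any ligand was added 1 h before transfection, and RNA was extracted with EDTA 72 h after it, then reverse-transcribed, amplified, barcoded and sequenced. RNA level was obtained by dividing RNA reads by DNA reads, normalizing to a spiked-in non-cleaving sequence or to the top sequences, then scaling and log-transforming. The top set was 25 sequences, scaling was ×100 with log10, and ≥100 DNA reads were required.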

[3] = variants of: B1; experiment: FACS-Seq fitted mean relative fluorescence mCherry/BFP with ligand (log10 relative fluorescence); HEK293T overexpressing SLC46A1; ligand concentration (+) FACS-Seq: 6 mM; higher = higher reporter protein expression; conditions: with (6R,S)-folinic acid; ligand present: yes
Method in brief: as §1

[4] = variants of: B1; experiment: normalized RNA/DNA level with ligand (relative to sTRSVctl = 100) (log10 (% of sTRSVctl)); HEK293T overexpressing SLC46A1; ligand concentration (+) RNA-Seq: 6 mM; higher = less ribozyme self-cleavage, higher mRNA level; conditions: with (6R,S)-folinic acid; ligand present: yes
Method in brief: as §2

Variant	FACS-Seq fitted mean (log10) [1]	normalized RNA/DNA level without ligand (log10) [2]	FACS-Seq fitted mean (log10) [3]	normalized RNA/DNA level with ligand (log10) [4]
CGGCAU	0.32 ± 0.03	2.011 ± 0.0083	0.52 ± 0.17	2.019 ± 0.02
CGGUAA	0.149 ± 0.092	1.954 ± 0.014	0.184 ± 0.083	1.993 ± 0.013
GGGUAG	0.0738 ± 0.081	1.979 ± 0.0061	0.00328 ± 0.082	2.013 ± 0.015
GGGUAA	0.299 ± 0.036	1.997 ± 0.011	0.348 ± 0.28	2 ± 0.026
GGGUAC	0.536 ± 0.17	1.952 ± 0.0069	0.245 ± 0.036	1.99 ± 0.073
GGGUAU	0.149 ± 0.054	2.014 ± 0.015	0.284 ± 0.16	2.01 ± 0.033
GGGUUG	0.344 ± 0.19	2.037 ± 0.0021	0.56 ± 0.17	2.05 ± 0.049
GGGAGU	0.46 ± 0.087	1.975 ± 0.0027	0.487 ± 0.054	2 ± 0.038
GGGUGA	0.435 ± 0.078	2.067 ± 0.0049	0.36 ± 0.31	2.07 ± 0.036
GGGUGC	0.427 ± 0.079	1.969 ± 0.01	0.461 ± 0.023	2.011 ± 0.007
UGGUAA	0.244 ± 0.12	1.878 ± 0.01	0.0329 ± 0.18	1.95 ± 0.02
UGGUAU	0.259 ± 0.18	1.926 ± 0.0022	0.274 ± 0.046	1.99 ± 0.015
UGGUAC	-0.0637 ± 0.16	1.994 ± 0.013	-0.0596 ± 0.18	1.99 ± 0.039
UGGUAG	0.0552 ± 0.19	1.5837 ± 9.7e-05	0.505 ± 0.61	1.935 ± 0.017
AGUAAA	0.22 ± 0.14	1.954 ± 0.013	0.344 ± 0.14	1.98 ± 0.041
UGGCAG	0.237 ± 0.02	1.76 ± 0.059	0.61 ± 0.17	1.955 ± 0.013
UGGAUU	0.509 ± 0.13	1.9762 ± 0.00085	0.582 ± 0.21	2.03 ± 0.023
UGGAUG	0.178 ± 0.037	1.68 ± 0.017	0.784 ± 0.046	1.958 ± 0.015

Variant	FACS-Seq fitted mean (log10) [1]	normalized RNA/DNA level without ligand (log10) [2]	FACS-Seq fitted mean (log10) [3]	normalized RNA/DNA level with ligand (log10) [4]
GGGCAU	0.273 ± 0.12	2.045 ± 0.01	0.0697 ± 0.059	2.054 ± 0.0062
GGGAUG	0.385 ± 0.017	1.974 ± 0.017	0.354 ± 0.025	2.04 ± 0.028
GGGUCG	0.531 ± 0.011	2.082 ± 0.0039	0.432 ± 0.17	2.06 ± 0.05
UGUACU	0.366 ± 0.027	1.99 ± 0.026	0.253 ± 0.17	2.021 ± 0.0023
UGGGUG	-0.154 ± 0.034	1.687 ± 0.0083	0.261 ± 0.016	1.95 ± 0.057
UGGGAG	-0.0508 ± 0.0099	1.6 ± 0.025	0.331 ± 0.024	1.93 ± 0.078
UGGGAU	0.3975 ± 0.0017	1.86 ± 0.022	0.547 ± 0.094	2 ± 0.046
UGUAGG	0.342 ± 0.083	1.61 ± 0.018	0.855 ± 0.1	1.92 ± 0.033
UGUAGC	0.389 ± 0.16	1.907 ± 0.01	0.362 ± 0.049	1.988 ± 0.016
UGUAAU	0.41 ± 0.068	1.886 ± 0.0076	0.35 ± 0.072	1.994 ± 0.0024
UGUAAA	0.596 ± 0.02	1.924 ± 0.0087	0.761 ± 0.19	1.993 ± 0.0085
UGUAAG	0.295 ± 0.0061	1.666 ± 0.0027	0.624 ± 0.062	1.94 ± 0.033
CGGUUA	0.594 ± 0.087	1.9899 ± 0.00027	0.531 ± 0.12	2.02 ± 0.056
GGGGCC	-0.232 ± 0.1	2.05 ± 0.023	-0.6 ± 0.34	2.05 ± 0.015
AGUACG	0.0935 ± 0.062	1.935 ± 0.0077	-0.00576 ± 0.14	2.03 ± 0.045
GGGGAA	0.571 ± 0.12	1.996 ± 0.0088	0.428 ± 0.4	2.06 ± 0.034
AGGAUA	0.115 ± 0.081	1.945 ± 0.0066	0.116 ± 0.17	2 ± 0.049
UGGUUG	0.266 ± 0.011	1.829 ± 0.014	0.626 ± 0.09	1.98 ± 0.015
